Ends that are not written are not given here.
Legend:
CXCL6 = CXCL6 (human, UniProt P80162 38-114); assay: cell-based or functional assay
CCL8 = target: T1, CCL8 (human, UniProt P80075 24-99); assay: cell-based or functional assay
T1 sequence (looked up): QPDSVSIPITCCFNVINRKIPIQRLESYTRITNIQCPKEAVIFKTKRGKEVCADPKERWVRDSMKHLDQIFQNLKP

## EEDDYTAYAPLTCYFT-NH2 [HD2 synthetic peptide]
CXCL6
  IC50 (median of biological replicates) of inhibition of CXCL6-induced cell migration, chemokine at EC80: 1.4e-05 molar
CCL8
  IC50 (median of biological replicates) of inhibition of CCL8-induced cell migration, chemokine at EC80: 1.9e-08 molar

Reference: PMC10505172, “Discovery and pharmacophoric characterization of chemokine network inhibitors using phage-display, saturation mutagenesis and computational modelling” (Nature Communications, 2023)
